The results in this text go back to patent US20230121197A1, “ANTIBODIES SPECIFICALLY BINDING THE CARBOXYMETHYLATED CATALYTIC SUBUNIT OF PROTEIN PHOSPHATASE 2A” (Medizinische Universität Wien, priority 2020, published 2023).

For experiment [1], the target named is T1, PP2Ac C-terminal peptide meL309, ac-HVTRRTPDYFL-CH3 (α-carboxymethylated) (human, SMILES …).
T1 construct: also called Y307-meL309; mePP2Ac
T1 peptide: Ac-HVTRRTPDYFL-OMe
Put plainly: SPR, from KD 11 nM against >5000 nM. From the text: (A) Saturation curve of the titration of the α-carboxymethylated PP2Ac C-terminal peptide (SEQ ID NO:18) on 7C10-C5 or 2A10 immobilized on a Series S Sensor Chip CM5 (GE Healthcare, 10296958). […] (B) Saturation curve of the titration of the α-carboxymethylated PP4c C-terminal peptide (SEQ ID NO:20) on 7C10-C5 or 2A10 immobilized on a Series S Sensor Chip CM5 (GE Healthcare, 10296958). […] The KD values were obtained using the fitting tool of the BiacoreT200 Evaluation Software (version 3.1).
The differential affinity of anti-carboxymethylated PP2Ac antibodies, 7C10-C5 and 2A10, to carboxymethylated PP2A catalytic subunit versus noncarboxymethylated PP2A catalytic subunit was determined by surface plasmon resonance (SPR) on a Biacore T200 (GE Healthcare) at the Core Facility Biomolecular & Cellular Analysis (University of Natural Resources and Life Sciences Vienna BOKU). The affinity of 7C10-C5 for carboxymethylated and noncarboxymethylated catalytic subunit of PP4 (PP4c), a PP2A-related phosphatase, was also determined.
On the technique in general: SPR reads the build-up and loss of mass on a sensor chip optically.

Experiment [2] concerns the target PP2Ac C-terminal peptide pY307-meL309, ac-HVTRRTPDpYFL-CH3 (human). Nature of the experiment: ELISA, 4-fold dilution series of coated peptide, hybridoma supernatant 1:50, normalized. A general note: ELISA stands for enzyme-linked immunosorbent assay.
The next experiment relates to PP2Ac. Put plainly: Summary of detection properties of C-terminal PP2Ac antibodies (Table 4), PP2Ac. The class given is binding. As for the experimental part:
Examples of antibodies with a preference for non-methylated PP2Ac are mouse monoclonal antibody 4B7 (Yu (2001), Mol Biol Cell 12, 185-199), mouse monoclonal antibody 1D7 generated by the Ogris lab but also the rabbit monoclonal E155 antibody from Abeam and the mouse monoclonal F-8 from SCBT that were thought to be specific for pTyr^307.
E155 was tested for its specificity to phosphorylation and methylation on the carboxy-terminus of PP2A on 6 different undecapeptides by ELISA (FIGS. 18 and 19). Flat-bottom Nunc-Immuno Medisorp 96-well ELISA plates (Thermo; 467320) were coated o/n at 4° C. with 50 μl of either a peptide of the sequence ac-HVTRRTPDYFL-OH (L309) (SEQ ID NO:18) at a concentration of 2 μg/ml, a peptide of the sequence ac-HVTRRTPDYFL-CH3 (meL309) (SEQ ID NO:18) at a concentration of 2 μg/ml in TBS (137 mM NaCl (AppliChem, #131659, 2.7 mM KCl (AppliChem, #131494.), 24.8 mM Tris (AppliChem, #A1086), pH 7.4 with HCl), with a peptide of the sequence ac-HVTRRpTPDYFL-OH (pT304-L309) (SEQ ID NO:116) at a concentration of 2 μg/ml in TBS, or with a peptide of the sequence ac-HVTRRpTPDYFL-CH3 (pT304-meL309) (SEQ ID NO:116) at a concentration of 2 μg/ml in TBS (FIG. 18). The wells were washed once with TBS, blocked with 200 μl of 2% bovine serum albumin (BSA) (Sigma, A9647) in TBS for 1 hour at RT and washed again once with TBS. […] Bound antibodies were detected colorimetrically by addition of 50 μl of 33 μg/ml […] (TMB) (Sigma, T2885) in 0.1 M sodium acetate pH 6.0 and 0.01% H2O2 (Sigma, H1009). The colorimetric reaction was stopped after 10 min by addition of 50 μl 0.5 M H2SO4, and absorbance was measured at 450 nm and 560 nm with a Perkin Elmer VICTOR® Nivo™ microplate reader. The results from 560 nm read were subtracted from the 450 nm read.
In a further experiment, flat-bottom Nunc-Immuno Medisorp 96-well ELISA plates (Thermo; 467320) were coated o/n at 4° C. with 50 μl of either a peptide of the sequence ac-HVTRRTPDYFL-OH (L309) (SEQ ID NO:18) at a concentration of 2 μg/ml in TBS (137 mM NaCl (AppliChem, #131659, 2.7 mM KCl (AppliChem, #131494.), 24.8 mM Tris (AppliChem, #A1086), pH 7.4 with HCl), a peptide of the sequence ac-HVTRRTPDYFL-CH3 (meL309) (SEQ ID NO:18) at a concentration of 2 μg/ml in TBS (137 mM NaCl (AppliChem, #131659.1214, 2.7 mM KCl (AppliChem, #131494.1211) pH 7.4 with HCl), with a peptide of the sequence ac-HVTRRTPDpYFL-OH (pY307-L309) (SEQ ID NO:117) at a concentration of 2 μg/ml in TBS or with a peptide of the sequence ac-HVTRRTPDpYFL-CH3 (pY307-meL309) (SEQ ID NO:117) at a concentration of 2 μg/ml in TBS (FIG. 19). […] The colorimetric reaction was stopped after 10 min by addition of 50 μl 0.5 M H2SO4, and absorbance was measured at 450 nm and 570 nm with a Biotek Synergy™ H1 microplate reader. […]

Setting [3] is: antibodies screened for binding methylated PP2Ac.

B1: 7C10-C5 monoclonal antibody (antibody, V domains shown)
VH: DVQLQESGPGLVKPSQSLSLTCSVTGYSITSGYYWNWIRQFPGNKLEWMGYISYDGSNNYNPSLKNRISITRDTSKNQFFLKLNSVTTEDTATYYCAGRFAYWGQGTLVTVSA
VL: DVLMTQTPLSLPVSLGDQASISCRSSQSIVHSNGNTYLEWYLQKPGQSPKLLIYKVSNRFSGVPDRFSGSGSGTDFTLKINRVEAEDLGVYYCFQGSHVPWTFGGGTKLEIK
notes: Used as hybridoma culture supernatant (ELISA, Western blot, IHC) or at 50 µg/mL (SPR); also called 7C10 X63; clone 7C10-C5
For the molecule B1, the “fold stronger binding than to non-carboxymethylated PP2Ac” value in experiment [1] is at least 400 fold. In addition, the EC50 (read off the curve) (in general, the concentration that produces a half-maximal response) in experiment [2] was 0.3 µg/mL.

B2: 7C10-C5: α-carboxymethylation specific mouse monoclonal IgG1 antibody from single clone hybridoma 7C10-C5 (DSM ACC3350) (antibody)
heavy: MYRMQLLSCIALSLALVTNSDVQLQESGPGLVKPSQSLSLTCSVTGYSITSGYYWNWIRQFPGNKLEWMGYISYDGSNNYNPSLKNRISITRDTSKNQFFLKLNSVTTEDTATYYCAGRFAYWGQGTLVTVSAAKTTAPSVYPLAPVCGDTTGSSVTLGCLVKGYFPEPVTLTWNSGSLSSGVHTFPAVLQSDLYTLSSSVTVTSSTWPSQSITCNVAHPASSTKVDKKIEPRGPTIKPCPPCKCPAPNLLGGPSVFIFPPKIKDVLMISLSPIVTCVVVDVSEDDPDVQISWFVNNVEVHTAQTQTHREDYNSTLRVVSALPIQHQDWMSGKEFKCKVNNKDLPAPIERTISKPKGSVRAPQVYVLPPPEEEMTKKQVTLTCMVTDFMPEDIYVEWTNNGKTELNYKNTEPVLDSDGSYFMYSKLRVEKKNWVERNSYSCSVVHEGLHNHHTTKSFSRTPGK
light: MDMRVPAQLLGLLLLWLSGARCDVLMTQTPLSLPVSLGDQASISCRSSQSIVHSNGNTYLEWYLQKPGQSPKLLIYKVSNRFSGVPDRFSGSGSGTDFTLKINRVEAEDLGVYYCFQGSHVPWTFGGGTKLEIKADAAPTVSIFPPSSEQLTSGGASVVCFLNNFYPKDINVKWKIDGSERQNGVLNSWTDQDSKDSTYSMSSTLTLTKDEYERHNSYTCEATHKTSTSPIVKSFNRNEC
modifications: Amino acid sequence of the recombinant 7C10-C5 heavy chain; Amino acid sequence of the recombinant 7C10-C5 light chain
As for B2, the “meLeu^309” value with PP2Ac (PP2Ac carboxymethylated at Leu309) was “*** (*** 80-100%)”. Further, in the experiment with PP2Ac (setting [3]), the “pThr^304 meLeu^309” value is recorded as “**** (**** >100%)” and the “pTyr^307 meLeu^309” value is reported as “*** (*** 80-100%)”. For the same molecule, in the experiment on PP2Ac (unmodified PP2Ac C-terminus), the unmodified result is reported as “— (— <15%)”.
